Experimental data: US20150267232A1, “IN VIVO AND IN VITRO CARBENE INSERTION AND NITRENE TRANSFER REACTIONS CATALYZED BY HEME ENZYMES” (California Institute of Technology, priority 2012, published 2015)
Residue numbers refer to the chain shown, from its start. In names and notes the source's numbering stands. Several values for one entry are separate records, joined by “and”; a condition that tells them apart may be missing. Equal values may be shown once.

B1: ABC-CIS: BM3-CIS + C400S (protein, listed as Bacillus megaterium)
chain: TIKEMPQPKTFGELKNLPLLNTDKPVQALMKIADELGEIFKFEAPGRVTRYLSSQRLIKEACDESRFDKNLSQALKFARDFAGDGLVTSWTHEKNWKKAHNILLPSFSQQAMKGYHAMMVDIAVQLVQKWERLNADEHIEVSEDMTRLTLDTIGLCGFNYRFNSFYRDQPHPFIISMVRALDEVMNKLQRANPDDPAYDENKRQFQEDIKVMNDLVDKIIADRKARGEQSDDLLTQMLNGKDPETGEPLDDGNIRYQIITFLIAGHEATSGLLSFALYFLVKNPHVLQKVAEEAARVLVDPVPSYKQVKQLKYVGMVLNEALRLWPTAPAFSLYAKEDTVLGGEYPLEKGDEVMVLIPQLHRDKTVWGDDVEEFRPERFENPSAIPQHAFKPFGNGQRASIGQQFALHEATLVLGMMLKHFDFEDHTNYELDIKETLTLKPKGFVVKAKSKKIPLGGIPSPSTEQSAKKVRKKAENAHNTPLLVLYGSNMGTAEGTARDLADIAMSKGFAPQVATLDSHAGNLPREGAVLIVTASYNGHPPDNAKQFVDWLDQASADEVKGVRYSVFGCGDKNWATTYQKVPAFIDETLAAKGAENIADRGEADASDDFEGTYEEWREHMWSDVAAYFNLDIENSEDNKSTLSLQFVDSAADMPLAKMHGAFSTNVVASKELQQPGSARSTRHLEIELPKEASYQEGDHLGVIPRNYEGIVNRVTARFGLDASQQIRLEAEEEKLAHLPLAKTVSVEELLQYVELQDPVTRTQLRAMAAKTVCPPHKVELEALLEKQAYKEQVLAKRLTMLELLEKYPACEMKFSEFIALLPSIRPRYYSISSSPRVDEKQASITVSVVSGEAWSGYGEYKGIASNYLAELQEGDTITCFISTPQSEFTLPKDPETPLIMVGPGTGVAPFRGFVQARKQLKEQGQSLGEAHLYFGCRSPHEDYLYQEELENAQSEGIITLHTAFSRMPNQPKTYVQHVMEQDGKKLIELLDQGAHFYICGDGSQMAPAVEATLMKSYADVHQVSEADARLWLQQLEEKGRYAKDVWAG
modifications: cytochrome P450NADPH-P-450 reductase precursor, cytochrome P450 (BM3), CYP102A1
notes: BM3-CIS + C400S
B2: P450BM3: wild-type cytochrome P450BM3 from Bacillus megaterium (SEQ ID NO: 1) (protein, listed as Bacillus megaterium)
chain: TIKEMPQPKTFGELKNLPLLNTDKPVQALMKIADELGEIFKFEAPGRVTRYLSSQRLIKEACDESRFDKNLSQALKFVRDFAGDGLFTSWTHEKNWKKAHNILLPSFSQQAMKGYHAMMVDIAVQLVQKWERLNADEHIEVPEDMTRLTLDTIGLCGFNYRFNSFYRDQPHPFITSMVRALDEAMNKLQRANPDDPAYDENKRQFQEDIKVMNDLVDKIIADRKASGEQSDDLLTHMLNGKDPETGEPLDDENIRYQIITFLIAGHETTSGLLSFALYFLVKNPHVLQKAAEEAARVLVDPVPSYKQVKQLKYVGMVLNEALRLWPTAPAFSLYAKEDTVLGGEYPLEKGDELMVLIPQLHRDKTIWGDDVEEFRPERFENPSAIPQHAFKPFGNGQRACIGQQFALHEATLVLGMMLKHFDFEDHTNYELDIKETLTLKPEGFVVKAKSKKIPLGGIPSPSTEQSAKKVRKKAENAHNTPLLVLYGSNMGTAEGTARDLADIAMSKGFAPQVATLDSHAGNLPREGAVLIVTASYNGHPPDNAKQFVDWLDQASADEVKGVRYSVFGCGDKNWATTYQKVPAFIDETLAAKGAENIADRGEADASDDFEGTYEEWREHMWSDVAAYFNLDIENSEDNKSTLSLQFVDSAADMPLAKMHGAFSTNVVASKELQQPGSARSTRHLEIELPKEASYQEGDHLGVIPRNYEGIVNRVTARFGLDASQQIRLEAEEEKLAHLPLAKTVSVEELLQYVELQDPVTRTQLRAMAAKTVCPPHKVELEALLEKQAYKEQVLAKRLTMLELLEKYPACEMKFSEFIALLPSIRPRYYSISSSPRVDEKQASITVSVVSGEAWSGYGEYKGIASNYLAELQEGDTITCFISTPQSEFTLPKDPETPLIMVGPGTGVAPFRGFVQARKQLKEQGQSLGEAHLYFGCRSPHEDYLYQEELENAQSEGIITLHTAFSRMPNQPKTYVQHVMEQDGKKLIELLDQGAHFYICGDGSQMAPAVEATLMKSYADVHQVSEADARLWLQQLEEKGRYAKDVWAG
modifications: cytochrome P450NADPH-P-450 reductase precursor, cytochrome P450 (BM3), CYP102A1
B3: BM3-T268A: P450BM3 variant: T268A (protein, listed as Bacillus megaterium)
chain: B2 chain with T268A
modifications: cytochrome P450NADPH-P-450 reductase precursor, cytochrome P450 (BM3), CYP102A1
B4: ABC-T268A: P450BM3 variant: T268A, C400S (protein, listed as Bacillus megaterium)
chain: B2 chain with T268A, C400S
modifications: cytochrome P450NADPH-P-450 reductase precursor, cytochrome P450 (BM3), CYP102A1
notes: P450BM3 variant: T268A, C400S

Assay: Whole-cell C—H amination of azide 1
Format: cell-based, E. coli BL21(DE3)
Details: intact E. coli cells; for Yield sulfonamide (%) / Yield sultam (%): OD600=30, 2 mM azide 1, 24 hours; for Yield sulfonamide (%) / Yield sultam (%) / TTN: anaerobic; for TTN: added glucose; for % ee: (S − R)/(S + R)
Description: Reaction conditions were as follows: 2 mM azide 1, 25 mM glucose, E. coli BL21(DE3) cells in M9-N minimal medium (OD600=30), 2.5% DMSO, oxygen depletion system (100 U ml^−1 glucose oxidase, 1400 U ml^−1 catalase) reacted for 24 hours under anaerobic conditions at 298 K. Yields determined by HPLC quantification.
(§1) Whole cell reactions used E. coli BL21(DE3) cells containing P450 or P411 catalysts, which were expressed and prepared as described elsewhere (Coelho, P. S. et al., Highly efficient carbene transfer to olefins catalyzed in vivo. Submitted (2013)). Following expression, cells were resuspended to an OD600 of 30 in M9 salts lacking NH4Cl (M9-N), and then degassed by sparging with argon in a sealed 6 mL crimp vial for at least 0.5 h. Separately, glucose (250 mM dissolved in 1×M9-N, 40 μL, or multiples thereof) was degassed by sparging with argon for at least five minutes. The oxygen quenching mixture was added to sealed 2 mL crimp vials containing stir bars and the headspace of the vials was purged with argon for five minutes at which time glucose, and then cells were added by syringe. Substrate (80 mM arylsulfonyl azide, 10 uL in DMSO) was added via syringe, and the reactions were stirred at room temperature for 24 h under positive argon pressure.
as §1, with “E.” for “Whole cell reactions used E.”, “catalysts” for “catalysts, which”, “Coelho,” for “(Coelho,”, “μL” for “uL”, “pressure. Reactions were quenched in a manner identical to reactions containing purified enzymes as described above. For chiral HPLC, the reactions were extracted and purified in an identical manner as for reactions that employed purified enzymes. Lyophilized intact cells containing sucrose as a cryoprotectant were prepared as described elsewhere (Coelho, P. S. et al., Highly efficient carbene transfer to olefins catalyzed in vivo. Submitted (2013)). The resulting cell powder, containing expressed ABC-CIS (26 mg) were added along with a stir bar to a 2 mL crimp vial and then sealed. The headspace of the vial was degassed, oxygen quenching system (40 μL) was added via syringe, followed by degassed glucose (250 mM, 40 μL), M9-N (310 μL), and finally substrate (80 mM 1, 10 μL). Lyophilized cell reactions were stirred for 24 h at room temperature, then quenched and analyzed as described above. […]” for “pressure.”
The preparative reaction was scaled up proportionally from small-scale reactions. E. coli BL21 cells containing ABC-CIS (OD600 30, 90 mL in M9-N) were sparged with argon for 45 minutes in a round bottom flask (250 mL) containing a stir bar. Separately, glucose solution (250 mM, 11.6 mL) was sparged with argon in a conical flask. The oxygen quenching mixture (10×, 11.6 mL) was degassed in a conical flask that was placed under high vacuum until slight foaming occurred (1-2 s) and then back-filled with argon; this sequence was repeated several times. Sparged glucose solution was then added to the anaerobic cell suspension via syringe, followed by the oxygen quenching system. Finally, substrate 1 (80 mM, 2.9 mL DMSO) was added dropwise via syringe, and the reaction was stirred for 24 h at room temperature. To quench the reaction, dilute HCl (3 M, 8.7 mL) and acetonitrile (125 mL) were added. […]

Row | Molecule | Yield sulfonamide (%) | Yield sultam (%) | TTN | % ee
1 | B1 | 50% | 46% | 680 | 60%
2 | B2 | 33% | 0.5% | 5.1 | 
3 | B3 | 51% | 7.8% | 26 | 84%
4 | B4 | 45% | 30% | 245 and 250 | 89%
